What was measured:
Format in all cases: cell-based, human
[1] = tested on: intracellular NO in melanoma cells; experiment: Intracellular nitric oxide levels, DAF-FM fluorescence probe; settings: DAF-FM probe after interferon exposure
Experimental: (§1) FIG. 2. A-C) Effects of IFN-α and IFN-γ treatment on nNOS expression levels in human primary melanoma WM3211 cells (A-B) and metastatic melanoma A375 cells. C) Distinct effects of IFN-α and IFN-γ on nNOS expression of A375 metastatic melanoma cells. A375 cells were treated with 500 units/mL of IFN-α or IFN-γ for 48 hours and whole cell lysates were collected. Samples were subjected to Western blot analysis for nNOS. A control of the protein loading was performed by detecting actin. D) Intracellular nitric oxide levels detected by microplate reader using DAF-FM fluorescence probe after IFN-α or IFN-γ treatment for 24 hours. E) IFN-γ-inducible nNOS expression was abrogated in nNOS-depleted melanoma cells. A375 cells transfected with shRNA-nNOS were treated with IFN-γ for 24 hours, followed by Western blot analysis.
Detection of intracellular nitric oxide levels. Cultured cells in a 96-well plate were treated with 100 units/mL of IFN-α or IFN-γ for 48 hours. Once the incubation period was complete, the media was removed and replaced with Hank's Balanced Salt Solution (HBSS). 1 μM of 4-Amino-5-methylamino-2′,7′-difluorofluorescein (DAF-FM) probe was added to each condition and fluorescence levels produced by DAF-FM were detected using a fluorescence microplate reader with excitation and emission wavelengths of 485 and 538 nm, respectively.

[2] = tested on: nNOS expression in WM3211 cells; experiment: Western blot of nNOS expression in primary melanoma WM3211 cells; settings: IFN-γ persisted after 96 hours, IFN-α within 4 hours, recovered by 24 hours
Experimental: as §1
Protein isolation and Western blotting. All samples were kept at 4° C. unless otherwise noted. […]
Equal amounts of protein, as detected by Bradford assay, were loaded and resolved on 7.5% SDS-polyacrylamide gels, then transferred to Immobilon-P^SQ polyvinylidene difluoride (PVDF) membranes (ISEQ00010; Merck KGaA, Darmstadt, Germany). […] Labeled bands were detected using SuperSignal horseradish peroxidase chemiluminescence reagents (1859674; 1859675; Thermo Fisher Scientific, Waltham, MA) and images were captured and analyzed using the Bio-Rad ChemiDoc XRS^+ System.

STAT3 = experiment: Western blot of STAT3 and phospho-STAT3 in A375 cells; settings: A375 cells exposed to interferon, 24 hours
Experimental: FIG. 3. […] A375 cells were treated with 100 units/mL and 250 units/mL of IFN-γ or IFN-α for 24 hours; whole cell lysates and nuclear extracts were used for Western blot analysis to detect STAT3 and pSTAT3 respectively. […] Protein isolation and Western blotting. All samples were kept at 4° C. unless otherwise noted.
Nuclear and cytosolic protein extraction is described elsewhere (84). Cells were collected via centrifugation and re-suspended in buffer A (10 mM HEPES, pH 7.9, 10 mM KCl, 0.150 mM MgCl2, 0.5 mM DTT, 0.2 mM PMSF) with 1% PIC and allowed to swell for 10 minutes. 10% NP-40 was added and vortexed to lyse the cells. […] Buffer D (20 mM HEPES, 20% glycerol, 50 mM KCl, 0.5 mM EDTA, 0.5 mM DTT, and 0.2 mM PMSF) was then added to dilute the nuclear sample.
The membranes were blocked using 10% non-fat milk (NOS1, STAT1/2, Actin, Lamin A/C) or 5% bovine serum albumin (BSA; SH3057402; Fisher Scientific, Waltham, MA) (p-STAT1/3), then incubated with primary antibodies for 1 hour at room temperature or overnight at 4° C., followed by secondary antibodies for 1 hour at room temperature as recommended by the manufacturer. Blots were washed extensively with TBS-T after each antibody incubation.

A375 melanoma cells = experiment: Adhesion of melanoma cells to fibroblast monolayer; settings: incubated 1 hour, MTT assay
Experimental: FIG. 1. A) Effect of IFN-γ on melanoma invasion potential detected by matrigel invasion assay. The represented data were from A375 metastatic melanoma cells treated with IFN-γ. *, p<0.05 compared to control. B) Adhesion analysis. A375 melanoma cells were seeded on top of fibroblast monolayer and incubated with IFN-γ for 1 hour, followed by MTT assay. *, p<0.05 compared to control.

B1: IFN-γ: Interferon-gamma, purchased from Invitrogen (protein, UniProt P01579 24-161, looked up)
Interferon gamma: QDPYVKEAENLKKYFNAGHSDVADNGTLFLGILKNWKEESDRKIMQSQIVSFYFKLFKNFKDDQSIQKSVETIKEDMNVKFFNSNKKKRDDFEKLTNYSVTDLNVQRKAIHELIQVMAELSPAAKTGKRKRSQMLFRG
- intracellular NO levels [1]: elevated
- nNOS expression levels [2]: markedly induced
- Phospho-STAT3 levels (STAT3): 1.9 folds of control
- expression levels of STAT3 (STAT3): 1.6 folds of control
- adhesion capacity of melanoma cells to fibroblast cells (A375 melanoma cells): significantly enhanced

Reference: patent US12083113B2, “Use of neuronal nitric oxide synthase inhibitors for immunotherapy in melanoma patients” (Northwestern University, priority 2018, dated 2024)
